The values that follow come from patent publication US20200231694A1, “PHARMACEUTICAL COMBINATIONS COMPRISING AN ANTI-BST-1 ANTIBODY AND A CYTIDINE ANALOGUE” (BERLIN-CHEMIE AG, priority 2017, published 2020).

The target of test [1] is T1, ADP-ribosyl cyclase 2 (CD157; BST1) (human, UniProt Q10588 33-293).
T1 construct: Endogenous lipid-anchored BST1 on human cell lines (A549, H226, U937) and on AML patient blasts; also called Bone marrow stromal antigen 1; cell-surface human BST1
T1 sequence: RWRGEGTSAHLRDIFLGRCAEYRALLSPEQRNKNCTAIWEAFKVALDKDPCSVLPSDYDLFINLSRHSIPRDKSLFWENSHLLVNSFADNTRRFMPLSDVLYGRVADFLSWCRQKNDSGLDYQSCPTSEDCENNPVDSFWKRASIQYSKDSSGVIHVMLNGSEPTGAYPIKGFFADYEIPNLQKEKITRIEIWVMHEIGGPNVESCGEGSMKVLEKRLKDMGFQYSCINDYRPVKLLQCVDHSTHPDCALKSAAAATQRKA
Nature of the test: flow cytometry on BST1-expressing H226 and A549 cells, PE-labelled secondary antibody, geometric mean fluorescence; single antibody dilution, concentration not given. The method, then:
(§1) The specificity of antibodies against the BST1 selected in Example 2 was tested by flow cytometry. To test the ability of the antibodies to bind to the cell surface BST1 protein, the antibodies were incubated with the BST1-expressing cells, A549 and H226, from human lung adenocarcinoma and human lung squamous carcinoma, respectively. Cells were washed in FACS buffer (DPBS, 2% FBS), centrifuged and resuspended in 100 μl of the diluted primary BST1 antibody (also diluted in FACS buffer). The antibody-A549 complex was incubated on ice for 60 min and then washed twice with FACS buffer as described above. The cell-antibody pellet was resuspended in 100 μl of the diluted secondary antibody (also diluted in FACS buffer) and incubated on ice for 60 min on ice. The pellet was washed as before and resuspended in 200 μl FACS buffer. The samples were loaded onto the BD FACScanto II flow sytometer and the data analyzed using the BD FACSdiva software.

Test [2] has as its target T2, cell surface BST1 protein (Homo sapiens, UniProt Q10588).
T2 construct: the antibodies were incubated with the BST1-expressing cells, A549 and H226, from human lung adenocarcinoma and human lung squamous carcinoma; endogenous in cells; host or cells: A549 (human lung adenocarcinoma) and H226 (human lung squamous carcinoma)
T2 sequence (Q10588 33-293): T1 sequence
In words: Flow cytometry binding of anti-BST1 antibodies to BST1-expressing cells. The settings on record: A549 and H226 cells. The method, then:
as §1
(In general: In flow cytometry, cells or beads pass a laser one at a time.)

Another test relates to A549 cells. In words: MabZAP internalization assay, A549 cells. The settings on record: compared to anti-human IgG isotype control. The class given is cell-based. Here is the method: (§2) Internalization of BST1_A1 and BST1_A2 by H226 and A549 were investigated using a MabZap assay. […] (Advanced Targeting System, San Diego, Calif., IT-22-100). First, BST1 Fab was bound to the surface of the cells. Then, the MabZAP antibodies were bound to the primary antibodies. Next, the MabZAP complex was internalized by the cells.
(§3) The MabZAP assay was conducted as follows. Each of the cells was seeded at a density of 5×10^3 cells per well. The anti-BST1 monoclonal antibody or an isotype control human IgG was serially diluted then added to the cells and incubated for 15 min at 25° C. The MabZAP was then added and incubated for 72 hr at 37° C. Cell viability in the plates was detected by CellTiter-Glo® Luminescent Cell Viability Assay kit (Promega, G7571) and the plates were read and analysed using Promega Glomax. Cell death was proportional to the concentration of anti-BST1 monoclonal antibodies.

The next test concerns H226 cells. Nature of the test: MabZAP internalization assay, H226 cells. Type of test: cell-based. The settings on record: compared to anti-human IgG isotype control. The method, then:
as §2, §3

B1: BST1_A2 (murine, as selected in Example 2) (Fab, V domains shown)
VH: QAYLQQSGPELVKAGASVKMSCKASGYSFIEYTINWVKQSHGKSLEWIGNIDPYYGTTYYNQMFTGKATLTVDQSSNTAYMQLKSLTSEDSAVYFCARGSAWFPYWGQGTLVTVSA
VL: DIVMSQSPAIMSASPGEKVTMTCSASSSVTYMYWYQQKPGSSPRLLIYDTSNLASGVPVRFSGSGSGTSYSLTISRMEAEDTATYYCQQWSNYPLTFGAGTKLELKR
notes: also called anti-BST1 monoclonal antibody BST1_A2
On to B1, for which the binding result in test [1] is on record as “binds”.

B2: BST1_A1 (Fab, V domains shown)
VH: QVKLQQSGAELVRPGSSVKISCKASGYAFSNSWINWVKQRPGQGLEWIGQIYPGDYDTNYNGKFKGKATLTADYSSSTAYMQLNSLTSEDSAVYFCARGGSIYYGNLGFFDVWGAGTTVTVSS
VL: EMVLTQSPAIMSTSLGERVTMTCTASSRVSSSYLHWYQQKPGSSPKLWIYSTSNLASGVPARFSGSGSGTSYSLTISSMEAEDAATYYCHQYHRSPYTFGGGTKLEIKR
notes: also called anti-BST1 monoclonal antibody BST1_A1
In the case of B2, the binding result in test [1] was “binds”.

B3: BST1_A1: anti-BST1 monoclonal antibody, VH SEQ ID NO: 1, VK SEQ ID NO: 3, murine VH 1-80 / VK 4-74 (antibody, listed as Mus musculus)
heavy: MKQSTIALALLPLLFTPVAKAQVKLQQSGAELVRPGSSVKISCKASGYAFSNSWINWVKQRPGQGLEWIGQIYPGDYDTNYNGKFKGKATLTADYSSSTAYMQLNSLTSEDSAVYFCARGGSIYYGNLGFFDVWGAGTTVTVSSAKTTPPSVYPLAPGSAAQTNSMVTLGCLVKGYFPEPVTVTWNSGSLSSGVHTFPAVLQSDLYTLSSSVTVPSSTWPSETVTCNVAHPASSTKVDKKIVPRDCHHHHHHH
light: MKYLLPTAAAGLLLLAAQPAMAEMVLTQSPAIMSTSLGERVTMTCTASSRVSSSYLHWYQQKPGSSPKLWIYSTSNLASGVPARFSGSGSGTSYSLTISSMEAEDAATYYCHQYHRSPYTFGGGTKLEIKRADAAPTVSIFPPSSEQLTSGGASVVCFLNNFYPKDINVKWKIDGSERQNGVLNSWTDQDSKDSTYSMSSTLTLTKDEYERHNSYTCEATHKTSTSPIVKSFNRNES
Turning to B3, the “binding to cell-surface human BST1” value in test [2] is listed as “bound effectively”. In addition, the “internalization (MabZAP)” value in the test with A549 cells and with H226 cells was “efficiently internalized” each time.

B4: BST1_A3 (Fab, V domains shown)
VH: QVQLQQSRAELVMPGASVKMSCKTSGYTFSDYWVHWVRQRPGQGLEWIGAIDGSDTFNDYSQKFKGRATLTVDESSSTVYMQLSSLTSEDSAVYYCARGGLLQYWGQGTTLTVSS
VL: DIQLTQSPASLSASVGETVTITCRASENIYSYLAWYQQKQGKSPQLLVYNTKTLGEGVPSRFSGSGSGTQFSLKINSLQPEDFGSYYCQHHYGTPFTFGSGTKLEIKR
In the case of B4, the binding result in test [1] was “binds”.

B5: BST_A3: anti-BST1 monoclonal antibody, VH SEQ ID NO: 52, VK SEQ ID NO: 53 (antibody, listed as Mus musculus)
heavy: MKQSTIALALLPLLFTPVAKAQVQLQQSRAELVMPGASVKMSCKTSGYTFSDYWVHWVRQRPGQGLEWIGAIDGSDTFNDYSQKFKGRATLTVDESSSTVYMQLSSLTSEDSAVYYCARGGLLQYWGQGTTLTVSSAKTTPPSVYPLAPGSAAQTNSMVTLGCLVKGYFPEPVTVTWNSGSLSSGVHTFPAVLQSDLYTLSSSVTVPSSTWPSETVTCNVAHPASSTKVDKKIVPRDCHHHHHHH
light: MKYLLPTAAAGLLLLAAQPAMADIQLTQSPASLSASVGETVTITCRASENIYSYLAWYQQKQGKSPQLLVYNTKTLGEGVPSRFSGSGSGTQFSLKINSLQPEDFGSYYCQHHYGTPFTFGSGTKLEIKRADAAPTVSIFPPSSEQLTSGGASVVCFLNNFYPKDINVKWKIDGSERQNGVLNSWTDQDSKDSTYSMSSTLTLTKDEYERHNSYTCEATHKTSTSPIVKSFNRNES
In the case of B5, the “binding to cell-surface human BST1” value in test [2] was “bound effectively”.
